The values below come from PMC4014439, “Mlh2 Is an Accessory Factor for DNA Mismatch Repair in Saccharomyces cerevisiae” (PLoS Genetics, 2014).

One experiment has as its target T1, S. cerevisiae Msh2-Msh3 (S. cerevisiae, UniProt P25847 1-964; P25336 1-1018).
T1 construct: Msh2, S. cerevisiae, expressed from pRDK354 (pGAL1-10-MSH2 URA3); Msh3, S. cerevisiae, expressed from pRDK1596 (pGAL1-10 MSH3-FLAG LEU2); also called Msh2-Msh3 heterodimer; source: S. cerevisiae RDKY2418 with pRDK354 and pRDK1596, purified as described previously
As to the kind of experiment: SPR; Biacore T100, 25°C; biotinylated 236 bp DNA (GC base pair, central TG mispair or +T insertion, lacO end blocked by 30 nM LacI) on a streptavidin SA chip; 20 nM Msh2-Msh6 or Msh2-Msh3 with 250 µM ATP injected for 100 s, then the same mixture with 40 nM Mlh1-Pms1 or Mlh1-Mlh2 for 150 s; 25 mM Tris-Cl pH 8.0, 4 mM MgCl2, 110 mM NaCl, 0.01% Igepal, 2 mM DTT, 2% glycerol; signal of the MutL homolog on DNA alone …. The conditions noted are these: both partners purified. In general terms: SPR reads the build-up and loss of mass on a sensor chip optically.

In experiment [1] the target is T2, S. cerevisiae wild type Msh2-Msh6 (S. cerevisiae, UniProt P25847 1-964; Q03834 1-1242).
T2 construct: Msh2, S. cerevisiae, wild type, from the pET11 MSH2-MSH6 plasmid; Msh6, S. cerevisiae, wild type, from the pET11 MSH2-MSH6 plasmid; also called Msh2-Msh6 heterodimer; source: E. coli BL21 (DE) RIL, pET11 MSH2-MSH6 plasmid, purified according to a previously published procedure
T2 sequence (P25847 whole entry, chain 1 of 2): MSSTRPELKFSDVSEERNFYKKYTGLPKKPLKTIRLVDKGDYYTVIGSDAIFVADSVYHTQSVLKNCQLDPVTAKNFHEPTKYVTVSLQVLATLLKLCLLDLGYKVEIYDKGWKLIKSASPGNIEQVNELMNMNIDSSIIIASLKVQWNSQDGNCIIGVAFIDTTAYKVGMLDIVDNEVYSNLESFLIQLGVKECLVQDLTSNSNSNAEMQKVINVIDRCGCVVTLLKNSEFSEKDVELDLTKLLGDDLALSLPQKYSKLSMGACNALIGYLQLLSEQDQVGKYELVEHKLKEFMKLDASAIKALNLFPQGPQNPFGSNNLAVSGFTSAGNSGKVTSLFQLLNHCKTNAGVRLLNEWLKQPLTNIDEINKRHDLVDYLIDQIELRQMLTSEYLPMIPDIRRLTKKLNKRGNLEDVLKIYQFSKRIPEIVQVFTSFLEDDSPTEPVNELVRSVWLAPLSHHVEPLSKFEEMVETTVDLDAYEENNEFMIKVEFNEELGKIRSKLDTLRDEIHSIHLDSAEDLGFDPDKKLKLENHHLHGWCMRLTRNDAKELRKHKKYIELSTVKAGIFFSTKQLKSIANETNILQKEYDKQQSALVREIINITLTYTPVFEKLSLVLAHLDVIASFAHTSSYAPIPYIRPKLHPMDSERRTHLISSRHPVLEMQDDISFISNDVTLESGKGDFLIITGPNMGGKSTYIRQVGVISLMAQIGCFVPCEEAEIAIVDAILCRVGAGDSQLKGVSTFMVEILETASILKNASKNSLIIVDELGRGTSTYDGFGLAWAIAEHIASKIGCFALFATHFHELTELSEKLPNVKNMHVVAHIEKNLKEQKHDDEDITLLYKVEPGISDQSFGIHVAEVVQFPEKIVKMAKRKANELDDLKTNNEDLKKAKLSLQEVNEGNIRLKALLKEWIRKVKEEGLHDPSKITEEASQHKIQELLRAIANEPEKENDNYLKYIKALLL
T2 sequence (Q03834 whole entry, chain 2 of 2): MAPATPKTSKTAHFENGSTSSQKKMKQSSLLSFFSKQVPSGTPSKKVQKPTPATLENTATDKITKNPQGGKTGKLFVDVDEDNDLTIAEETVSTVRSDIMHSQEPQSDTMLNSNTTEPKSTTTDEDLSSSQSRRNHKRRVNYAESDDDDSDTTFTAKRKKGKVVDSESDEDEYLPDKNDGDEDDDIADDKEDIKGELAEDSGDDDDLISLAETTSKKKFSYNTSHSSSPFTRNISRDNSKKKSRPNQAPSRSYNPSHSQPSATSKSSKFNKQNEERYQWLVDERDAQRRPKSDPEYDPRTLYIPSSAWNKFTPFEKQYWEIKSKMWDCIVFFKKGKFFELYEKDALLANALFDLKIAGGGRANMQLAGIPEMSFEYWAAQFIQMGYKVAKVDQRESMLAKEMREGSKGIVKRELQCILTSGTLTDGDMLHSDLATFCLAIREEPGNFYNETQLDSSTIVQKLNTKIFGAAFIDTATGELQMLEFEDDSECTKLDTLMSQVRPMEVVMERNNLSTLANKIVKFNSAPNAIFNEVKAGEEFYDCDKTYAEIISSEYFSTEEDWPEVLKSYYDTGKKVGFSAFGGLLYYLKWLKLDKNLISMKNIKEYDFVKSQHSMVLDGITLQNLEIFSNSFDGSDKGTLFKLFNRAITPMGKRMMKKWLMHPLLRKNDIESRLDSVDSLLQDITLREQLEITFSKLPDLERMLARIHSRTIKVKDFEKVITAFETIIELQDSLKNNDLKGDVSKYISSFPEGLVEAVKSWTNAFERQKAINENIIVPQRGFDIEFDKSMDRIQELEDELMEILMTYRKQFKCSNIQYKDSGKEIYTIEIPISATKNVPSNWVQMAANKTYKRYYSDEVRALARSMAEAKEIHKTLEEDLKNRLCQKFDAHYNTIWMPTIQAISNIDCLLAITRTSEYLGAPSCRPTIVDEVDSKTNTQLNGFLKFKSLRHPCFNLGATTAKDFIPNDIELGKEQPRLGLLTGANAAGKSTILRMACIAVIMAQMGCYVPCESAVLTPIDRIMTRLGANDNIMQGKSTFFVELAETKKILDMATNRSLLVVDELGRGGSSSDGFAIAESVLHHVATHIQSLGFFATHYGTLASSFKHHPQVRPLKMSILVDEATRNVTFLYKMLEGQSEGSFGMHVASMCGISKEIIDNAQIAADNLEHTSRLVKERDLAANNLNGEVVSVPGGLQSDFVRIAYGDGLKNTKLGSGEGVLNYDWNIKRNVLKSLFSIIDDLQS
Described as above. The following applies: both partners purified.

T1 sequence (P25847 whole entry, chain 1 of 2): as the sequence (P25847 whole entry, chain 1 of 2) above
T1 sequence (P25336 whole entry, chain 2 of 2): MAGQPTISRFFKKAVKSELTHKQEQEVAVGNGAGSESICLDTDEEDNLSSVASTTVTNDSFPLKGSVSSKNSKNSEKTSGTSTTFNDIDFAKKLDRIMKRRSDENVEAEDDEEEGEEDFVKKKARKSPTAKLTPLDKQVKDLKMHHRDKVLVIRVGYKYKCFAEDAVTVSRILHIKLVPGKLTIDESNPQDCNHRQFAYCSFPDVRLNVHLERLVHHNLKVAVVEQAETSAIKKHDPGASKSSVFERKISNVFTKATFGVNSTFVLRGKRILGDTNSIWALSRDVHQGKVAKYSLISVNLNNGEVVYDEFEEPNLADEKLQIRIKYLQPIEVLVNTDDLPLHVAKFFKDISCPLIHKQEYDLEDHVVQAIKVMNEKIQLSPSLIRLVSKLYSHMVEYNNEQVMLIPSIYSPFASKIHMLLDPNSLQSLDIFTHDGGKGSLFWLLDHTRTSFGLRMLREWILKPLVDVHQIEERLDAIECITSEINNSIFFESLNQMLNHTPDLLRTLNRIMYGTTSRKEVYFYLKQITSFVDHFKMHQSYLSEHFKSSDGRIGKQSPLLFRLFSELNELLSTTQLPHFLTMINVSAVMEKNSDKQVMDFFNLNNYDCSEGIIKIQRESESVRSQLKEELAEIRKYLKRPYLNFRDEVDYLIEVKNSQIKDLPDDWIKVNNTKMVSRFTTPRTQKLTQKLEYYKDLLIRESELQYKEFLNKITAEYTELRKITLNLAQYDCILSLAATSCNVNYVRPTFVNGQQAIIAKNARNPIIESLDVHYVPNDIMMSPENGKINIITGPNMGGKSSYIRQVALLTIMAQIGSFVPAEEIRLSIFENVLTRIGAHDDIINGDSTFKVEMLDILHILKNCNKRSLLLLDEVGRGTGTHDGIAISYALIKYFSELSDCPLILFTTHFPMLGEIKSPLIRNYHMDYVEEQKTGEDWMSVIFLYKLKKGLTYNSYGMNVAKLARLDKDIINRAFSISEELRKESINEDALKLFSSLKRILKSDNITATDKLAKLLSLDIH

B1: S. cerevisiae Mlh1-Pms1 complex (complex)
chain 1: MSLRIKALDASVVNKIAAGEIIISPVNALKEMMENSIDANATMIDILVKEGGIKVLQITDNGSGINKADLPILCERFTTSKLQKFEDLSQIQTYGFRGEALASISHVARVTVTTKVKEDRCAWRVSYAEGKMLESPKPVAGKDGTTILVEDLFFNIPSRLRALRSHNDEYSKILDVVGRYAIHSKDIGFSCKKFGDSNYSLSVKPSYTVQDRIRTVFNKSVASNLITFHISKVEDLNLESVDGKVCNLNFISKKSISPIFFINNRLVTCDLLRRALNSVYSNYLPKGNRPFIYLGIVIDPAAVDVNVHPTKREVRFLSQDEIIEKIANQLHAELSAIDTSRTFKASSISTNKPESLIPFNDTIESDRNRKSLRQAQVVENSYTTANSQLRKAKRQENKLVRIDASQAKITSFLSSSQQFNFEGSSTKRQLSEPKVTNVSHSQEAEKLTLNESEQPRDANTINDNDLKDQPKKKQKLGDYKVPSIADDEKNALPISKDGYIRVPKERVNVNLTSIKKLREKVDDSIHRELTDIFANLNYVGVVDEERRLAAIQHDLKLFLIDYGSVCYELFYQIGLTDFANFGKINLQSTNVSDDIVLYNLLSEFDELNDDASKEKIISKIWDMSSMLNEYYSIELVNDGLDNDLKSVKLKSLPLLLKGYIPSLVKLPFFIYRLGKEVDWEDEQECLDGILREIALLYIPDMVPKVDTSDASLSEDEKAQFINRKEHISSLLEHVLFPCIKRRFLAPRHILKDVVEIANLPDLYKVFERC
chain 2: MTQIHQINDIDVHRITSGQVITDLTTAVKELVDNSIDANANQIEIIFKDYGLESIECSDNGDGIDPSNYEFLALKHYTSKIAKFQDVAKVQTLGFRGEALSSLCGIAKLSVITTTSPPKADKLEYDMVGHITSKTTTSRNKGTTVLVSQLFHNLPVRQKEFSKTFKRQFTKCLTVIQGYAIINAAIKFSVWNITPKGKKNLILSTMRNSSMRKNISSVFGAGGMRGLEEVDLVLDLNPFKNRMLGKYTDDPDFLDLDYKIRVKGYISQNSFGCGRNSKDRQFIYVNKRPVEYSTLLKCCNEVYKTFNNVQFPAVFLNLELPMSLIDVNVTPDKRVILLHNERAVIDIFKTTLSDYYNRQELALPKRMCSQSEQQAQKRLKTEVFDDRSTTHESDNENYHTARSESNQSNHAHFNSTTGVIDKSNGTELTSVMDGNYTNVTDVIGSECEVSVDSSVVLDEGNSSTPTKKLPSIKTDSQNLSDLNLNNFSNPEFQNITSPDKARSLEKVVEEPVYFDIDGEKFQEKAVLSQADGLVFVDNECHEHTNDCCHQERRGSTDTEQDDEADSIYAEIEPVEINVRTPLKNSRKSISKDNYRSLSDGLTHRKFEDEILEYNLSTKNFKEISKNGKQMSSIISKRKSEAQENIIKNKDELEDFEQGEKYLTLTVSKNDFKKMEVVGQFNLGFIIVTRKVDNKYDLFIVDQHASDEKYNFETLQAVTVFKSQKLIIPQPVELSVIDELVVLDNLPVFEKNGFKLKIDEEEEFGSRVKLLSLPTSKQTLFDLGDFNELIHLIKEDGGLRRDNIRCSKIRSMFAMRACRSSIMIGKPLNKKTMTRVVHNLSELDKPWNCPHGRPTMRHLMELRDWSSFSKDYEI
notes: Mlh1, S. cerevisiae, expressed from pRDK573 (pGAL1-10-MLH1 TRP1); Pms1, S. cerevisiae, expressed from pRDK1099 (pGAL1-10-PMS1-FLAG LEU2); also called Mlh1-Pms1 heterodimer
Take B1: the binding result (in the experiment with S. cerevisiae Msh2-Msh3; in experiment [1]) was “binds” each time.

B2: S. cerevisiae Mlh1-Mlh2 complex (complex)
chain 1: MSLRIKALDASVVNKIAAGEIIISPVNALKEMMENSIDANATMIDILVKEGGIKVLQITDNGSGINKADLPILCERFTTSKLQKFEDLSQIQTYGFRGEALASISHVARVTVTTKVKEDRCAWRVSYAEGKMLESPKPVAGKDGTTILVEDLFFNIPSRLRALRSHNDEYSKILDVVGRYAIHSKDIGFSCKKFGDSNYSLSVKPSYTVQDRIRTVFNKSVASNLITFHISKVEDLNLESVDGKVCNLNFISKKSISPIFFINNRLVTCDLLRRALNSVYSNYLPKGNRPFIYLGIVIDPAAVDVNVHPTKREVRFLSQDEIIEKIANQLHAELSAIDTSRTFKASSISTNKPESLIPFNDTIESDRNRKSLRQAQVVENSYTTANSQLRKAKRQENKLVRIDASQAKITSFLSSSQQFNFEGSSTKRQLSEPKVTNVSHSQEAEKLTLNESEQPRDANTINDNDLKDQPKKKQKLGDYKVPSIADDEKNALPISKDGYIRVPKERVNVNLTSIKKLREKVDDSIHRELTDIFANLNYVGVVDEERRLAAIQHDLKLFLIDYGSVCYELFYQIGLTDFANFGKINLQSTNVSDDIVLYNLLSEFDELNDDASKEKIISKIWDMSSMLNEYYSIELVNDGLDNDLKSVKLKSLPLLLKGYIPSLVKLPFFIYRLGKEVDWEDEQECLDGILREIALLYIPDMVPKVDTSDASLSEDEKAQFINRKEHISSLLEHVLFPCIKRRFLAPRHILKDVVEIANLPDLYKVFERC
chain 2: MTIHQLSPESQWKIVSSSFIYGPVAAVRELLDNSIDSGAKKVFIDVDSTTGGCEYISVKDDGSGVDIIDRPSMCLEYTTSKMSSLGDISILTTLGFRGEALFLLSNLCNQKGSMQVETKTADDVIGEKWLVDSKGGITNGKRYKVSCPVGTTVILRKLLGGLRARYLEISSRPRKTFDELIYLINHYSLIHRNIRFYFSLVSLQKNGAIERKQMQETLDPKISRARSLSLLARLKKPVPLNFIVEENFVIDEKINLDLILPRMVPESDVINIKRRFKFLSVNERALSLNLETGKTISKLLSSIYRDFSLLDPMVWFINLNCDTKLLDVNIEPEKNDVMIKSFEVIFKKIENKLKLLLEERIGIETNMLGDKHVQPSINEKTSPALVIPTPDAENEISKGCGAVSGKDKTDIPQKNSDLIVPTFYDEANLENTTIVAATPSPTKFSEDKALDEQTQLTISSYRSSSSGSMASEDSTNWRHNFQQELSENSEVAGAGSSTLPSSLTYNYIETIPENEDLELSKDASISNPFMITKIRNVNKKLSENLLEAKRTSCGDANKRGMPNERQLSNTEKKELIKLQQTYGKRNNTVDMTIPRNSKKKVTDNYIKKASCMHKTRPKLMHFSEYTNNYVYTLKNEKIVKHDSDNFAKETLWLRSRDDATSPSSSLLQALRAHVKKPGHIEATTNEWCLFTPDSP
notes: Mlh1, S. cerevisiae, expressed from pRDK573 (pGAL1-10-MLH1 TRP1); Mlh2, S. cerevisiae, MLH2 ORF put in place of the PMS1 ORF of pRDK1099, giving pRDK1664 (pGAL1-10-Mlh2-FLAG LEU2); Purified as a preformed complex through the FLAG tag on Mlh2; used at 40 nM in the SPR assay; also called Mlh1-Mlh2 heterodimer
Take B2: the binding result (with S. cerevisiae Msh2-Msh3; in experiment [1]) was “binds” throughout.
